Experimental data from patent US8802414B2, “Methods and materials for reducing biofilms” (priority 2007, dated 2014).

B1: thermolysin: protease (Sigma-Aldrich), 100 μg/mL in 10 mM Tris-HCl pH 7.5 (protein, UniProt P00800 233-548, looked up)
Thermolysin: ITGTSTVGVGRGVLGDQKNINTTYSTYYYLQDNTRGNGIFTYDAKYRTTLPGSLWADADNQFFASYDAPAVDAHYYAGVTYDYYKNVHNRLSYDGNNAAIRSSVHYSQGYNNAFWNGSQMVYGDGDGQTFIPLSGGIDVVAHELTHAVTDYTAGLIYQNESGAINEAISDIFGTLVEFYANKNPDWEIGEDVYTPGISGDSLRSMSDPAKYGDPDHYSKRYTGTQDNGGVHINSGIINKAAYLISQGGTHYGVSVVGIGRDKLGKIFYRALTQYLTPTSNFSQLRAAAVQSATDLYGSTSQEVASVKQAFDAVGVK
B2: Proteinase K: protease (Roche Applied Science), 100 μg/mL in 10 mM Tris-HCl pH 7.5 (protein, UniProt P06873 106-384, looked up)
Proteinase K: AAQTNAPWGLARISSTSPGTSTYYYDESAGQGSCVYVIDTGIEASHPEFEGRAQMVKTYYYSSRDGNGHGTHCAGTVGSRTYGVAKKTQLFGVKVLDDNGSGQYSTIIAGMDFVASDKNNRNCPKGVVASLSLGGGYSSSVNSAAARLQSSGVMVAVAAGNNNADARNYSPASEPSVCTVGASDRYDRRSSFSNYGSVLDIFGPGTSILSTWIGGSTRSISGTSMATPHVAGLAAYLMTLGKTTAASACRYIADTANKGDLSNIPFGTVNLLAYNNYQA
B3: heat-inactivated proteinase K: proteinase K inactivated by boiling for 40 minutes (protein, UniProt P06873 106-384, looked up)
Proteinase K: B2 Proteinase K
modifications: heat-inactivated

Assays:
Experiment in all cases: Microtiter plate biofilm detachment assay
[1] = system: pre-formed S. lugdunensis biofilms; format: cell-based, Staphylococcus lugdunensis; settings: 2 hours at 37° C.; safranin OD492; 15 clinical isolates
Experimental: 40 mM sodium metaperiodate (NaIO4, Sigma-Aldrich) in water, 40 μg/mL purified recombinant dispersin B (obtained from Kane Biotech Inc., Winnipeg, Manitoba, Canada) in sodium phosphate buffer (50 mM sodium phosphate (pH 5.8), 100 mM NaCl), 100 μg/mL proteinase K (Roche Applied Science) in 10 mM Tris-HCl pH 7.5, 10 U/mL trypsin (Promega Corp., Madison, Wis.) in 10 mM Tris-HCl pH 7.5, 100 μg/mL chymotrypsin (Sigma-Aldrich) in 10 mM Tris-HCl pH 7.5, and 100 μg/mL thermolysin (Sigma-Aldrich) in 10 mM Tris-HCl pH 7.5 were tested for their ability to detach pre-formed S. lugdunensis biofilms from polystyrene microtiter plate wells. For certain experiments, proteinase K was inactivated by boiling for 40 minutes.
Biofilms grown in TSBgluc1% were formed in wells of microtiter plates and washed twice with deionized water, as described above for the microtiter plate biofilm formation assay. 100 μL of NaIO4, enzyme, or suitable control was carefully added so as not to mechanically detach biofilms on the bottoms of wells. Plates were incubated at 37° C. for 2 hours, and contents of wells were discarded and washed twice with deionized water. Plates were air-dried overnight, stained with 0.1% safranin for 1 minute, and processed as described above to quantify the amount of stained biofilm remaining after treatment, relative to treatment with the control reagent. Four wells were measured for each treatment condition. Assays were repeated two or three times on separate days with similar results.

[2] = system: pre-formed biofilms of S. epidermidis RP62A; format: cell-based, Staphylococcus epidermidis; settings: 2 hours at 37° C.; safranin OD492
[3] = system: pre-formed biofilms of S. carnosus TM300+pCN27; format: cell-based, Staphylococcus carnosus; settings: 2 hours at 37° C.; safranin OD492

Molecule	biofilm detachment compared to buffer [1]	biofilm detachment compared to buffer [2]	biofilm detachment compared to buffer [3]
B1	detach S. lugdunensis biofilms selectively		
B2	completely removed	no effect	no effect
B3	detachment effect was found to be abolished		
